Test results taken from article PMC9780223 (2022).

Target: purified recombinant PAPP-A free of STC2 (apo PAPP-A) (human, UniProt Q13219 82-1627, fluorescently labeled with Protein Labeling Kit RED-NHS (in MST))
Experiment: MST; in the presence of IGF2

B1: IGFBP4 with C-terminal His6 tag (natural protein)
chain: DEAIHCPPCSEEKLARCRPPVGCEELVREPGCGCCATCALGLGMPCGVYTPRCGSGLRCYPPRGVEKPLHTLMHGQGVCMELAEIEAIQESLQPSDKDEGDHPNNSFSPCSAHDRRCLQKHFAKIRDRSTSGGKMKVNGAPREDARPVPQGSCQSELHRALERLAASQSRTHEDLYIIPIPNCDRNGNFHPKQCHPALDGQRGKCWCVDRKTGVKLPGGLEPKGELDCHQLADSFRE
Kd: ~160 nM
